Several values for one entry are separate records, joined by “and”; a condition that tells them apart may be missing. Equal entries are not always repeated.

The conditions of the data set: Salmonella typhimurium (strain LT2 / SGSC1412 / ATCC 700720); pH 7.4; Thermal; CD; Phosphate 10 mM; transition: 3; whole UniProt chain shown.

B1: Cell invasion protein SipD wild type, Q56026 (protein)
chain: MLNIQNYSASPHPGIVAERPQTPSASEHVETAVVPSTTEHRGTDIISLSQAATKIHQAQQTLQSTPPISEENNDERTLARQQLTSSLNALAKSGVSLSAEQNENLRSAFSAPTSALFSASPMAQPRTTISDAEIWDMVSQNISAIGDSYLGVYENVVAVYTDFYQAFSDILSKMGGWLLPGKDGNTVKLDVTSLKNDLNSLVNKYNQINSNTVLFPAQSGSGVKVATEAEARQWLSELNLPNSCLKSYGSGYVVTVDLTPLQKMVQDIDGLGAPGKDSKLEMDNAKYQAWQSGFKAQEENMKTTLQTLTQKYSNANSLYDNLVKVLSSTISSSLETAKSFLQG
Broadly, the Tm is the temperature at the midpoint of the melting transition. Take B1: the Tm is 75.7 °C and 76.6 °C.

Source of the values: FireProtDB (doi:10.1110/ps.062645007).
